Earlier results in paper PMC7854602.

Tests used:
Cdc42 (inactive) = Cdc42 (inactive) (UniProt P60953)
Cdc42 (activated) = Cdc42 (activated) (UniProt P60953)
RhoA (inactive) = RhoA (inactive) (UniProt P61586)
RhoA (activated) = RhoA (activated) (UniProt P61586)

Substance | Kd (Cdc42 (inactive)) | Kd (Cdc42 (activated)) | Kd (RhoA (inactive)) | Kd (RhoA (activated))
Pak3 CBD 60-113 (from UniProt O75914) | 149 µM | 1.8 µM |  | 
Rhotekin RBD 8-81 (from UniProt Q8C6B2) |  |  | 47 µM | 3.9 µM
